Values belong to the substance of their own block, whether it stands above or below them.
What was measured:
Assay in all cases: not stated; tetrameric assembly of the BRIL-KcsA linker constructs; how it was judged is not told
[1] = target: BRIL-2turn-KcsA (construct 7) (UniProt P0A334)
[2] = target: BRIL-AAA-KcsA (construct 2) (UniProt P0A334)
[3] = target: BRIL-AAAA-KcsA (construct 3, 1 turn) (UniProt P0A334)
[4] = target: BRIL-AAAAA-KcsA (construct 4) (UniProt P0A334)
[5] = target: BRIL-AARAAA-KcsA (construct 5) (UniProt P0A334)
[6] = target: BRIL-AARAAAA-KcsA (construct 6) (UniProt P0A334)

Substance: BRIL-AAA-KcsA (construct 2) (from UniProt P0A334 24-160)
stoichiometry N [2]: 4

Substance: BRIL-AAAAA-KcsA (construct 4) (from UniProt P0A334 24-160)
stoichiometry N [4]: 4

Substance: BRIL-AARAAA-KcsA (construct 5) (from UniProt P0A334 24-160)
stoichiometry N [5]: 4

Substance: BRIL-AARAAAA-KcsA (construct 6) (from UniProt P0A334 24-160)
stoichiometry N [6]: 4

Continued, values first:

stoichiometry N [1]: 4
Substance: BRIL-2turn-KcsA (construct 7) (from UniProt P0A334 24-160)

stoichiometry N [3]: 4
Substance: BRIL-AAAA-KcsA (construct 3, 1 turn) (from UniProt P0A334 24-160)
